Source: patent US20150023979A1 (VALDOSPAN, published 2015)

T1: HPV38 E7 protein (beta-papillomavirus), recombinant (His-TEV-E7 fusion from E. coli) (Human Papilloma Virus type 38 (HPV38), UniProt Q80908 1-100)
T1 construct: mature; also called HPVE7 38; VE7_HPV38; not shown: N-terminal 6x Histidine tag and TEV cleavage site of the vector
T1 sequence: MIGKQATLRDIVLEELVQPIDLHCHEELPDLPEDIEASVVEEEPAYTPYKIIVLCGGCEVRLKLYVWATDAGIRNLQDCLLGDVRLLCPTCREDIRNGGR

T2: HPV5 E7 protein (beta-papillomavirus), recombinant (His-TEV-E7 fusion from E. coli) (Human Papilloma Virus type 5 (HPV5), UniProt P06932 1-103)
T2 construct: mature; also called VE7_HPV05; not shown: N-terminal 6x Histidine tag and TEV cleavage site of the vector
T2 sequence: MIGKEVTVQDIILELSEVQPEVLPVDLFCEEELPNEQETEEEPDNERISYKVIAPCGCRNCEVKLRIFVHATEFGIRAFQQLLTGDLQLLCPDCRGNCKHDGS

T3: HPV6 E7 protein (low risk type), recombinant (His-TEV-E7 fusion from E. coli) (Human Papilloma Virus type 6 (HPV6), UniProt Q84292 1-98)
T3 construct: mature; the only HPV6 entry in the list of constructs is VE7_HPV6A; also called VE7_HPV6A; not shown: N-terminal 6x Histidine tag and TEV cleavage site of the vector
T3 sequence: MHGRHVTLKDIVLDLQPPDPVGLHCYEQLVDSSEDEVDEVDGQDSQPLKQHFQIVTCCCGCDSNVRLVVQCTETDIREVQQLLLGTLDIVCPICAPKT

T4: HPV11 E7 protein (low risk type), recombinant (His-TEV-E7 fusion from E. coli) (Human Papilloma Virus type 11 (HPV11), UniProt P04020 1-98)
T4 construct: mature; also called VE7_HPV11; not shown: N-terminal 6x Histidine tag and TEV cleavage site of the vector
T4 sequence: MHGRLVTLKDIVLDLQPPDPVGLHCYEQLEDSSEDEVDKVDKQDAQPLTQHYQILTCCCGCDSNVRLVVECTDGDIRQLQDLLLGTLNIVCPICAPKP

T5: HPV39 E7 protein, recombinant (His-TEV-E7 fusion from E. coli) (Human Papilloma Virus type 39 (HPV39), UniProt P24837 1-109, CKII phosphorylation of the consensus site serine in the antigen preparation of Example 2)
T5 construct: mature; also called VE7_HPV39; not shown: N-terminal 6x Histidine tag and TEV cleavage site of the vector
T5 sequence: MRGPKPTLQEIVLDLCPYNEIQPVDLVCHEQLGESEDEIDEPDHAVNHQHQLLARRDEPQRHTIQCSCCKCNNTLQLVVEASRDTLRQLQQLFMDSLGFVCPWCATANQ

T6: HPV45 E7 protein, recombinant (His-TEV-E7 fusion from E. coli) (Human Papilloma Virus type 45 (HPV45), UniProt P21736 1-106, CKII phosphorylation of the consensus site serines in the antigen preparation of Example 2; biotin on primary amines in the SPR assay)
T6 construct: mature; also called VE7_HPV45; not shown: N-terminal 6x Histidine tag and TEV cleavage site of the vector
T6 sequence: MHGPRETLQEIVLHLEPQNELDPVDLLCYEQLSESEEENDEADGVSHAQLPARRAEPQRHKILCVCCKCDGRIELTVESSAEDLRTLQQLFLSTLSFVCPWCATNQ

T7: HPV51 E7 protein, recombinant (His-TEV-E7 fusion from E. coli) (Human Papilloma Virus type 51 (HPV51), UniProt P26558 1-101, CKII phosphorylation of the consensus site serines in the antigen preparation of Example 2)
T7 construct: mature; also called VE7_HPV51; not shown: N-terminal 6x Histidine tag and TEV cleavage site of the vector
T7 sequence: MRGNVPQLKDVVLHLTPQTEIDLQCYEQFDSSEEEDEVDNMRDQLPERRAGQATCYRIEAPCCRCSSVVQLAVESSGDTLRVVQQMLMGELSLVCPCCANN

T8: HPV56 E7 protein, recombinant (His-TEV-E7 fusion from E. coli) (Human Papilloma Virus type 56 (HPV56), UniProt P36833 1-105, CKII phosphorylation of the consensus site serines in the antigen preparation of Example 2)
T8 construct: mature; also called VE7_HPV56; not shown: N-terminal 6x Histidine tag and TEV cleavage site of the vector
T8 sequence: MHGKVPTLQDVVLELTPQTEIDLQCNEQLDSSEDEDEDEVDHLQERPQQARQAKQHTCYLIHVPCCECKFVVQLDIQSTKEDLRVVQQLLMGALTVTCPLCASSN

T9: HPV35 E7 protein, recombinant (His-TEV-E7 fusion from E. coli) (Human Papilloma Virus type 35 (HPV35), UniProt P27230 1-99, CKII phosphorylation of the consensus site serines in the antigen preparation of Example 2)
T9 construct: mature; also called VE7_HPV35; not shown: N-terminal 6x Histidine tag and TEV cleavage site of the vector
T9 sequence: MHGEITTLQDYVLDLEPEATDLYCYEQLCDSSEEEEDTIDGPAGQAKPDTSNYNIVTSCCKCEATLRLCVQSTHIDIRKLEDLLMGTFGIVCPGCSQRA

T10: HPV33 E7 protein, recombinant (His-TEV-E7 fusion from E. coli) (Human Papilloma Virus type 33 (HPV33), UniProt P06429 1-97, CKII phosphorylation of the consensus site serines in the antigen preparation of Example 2; biotin on primary amines in the SPR assay)
T10 construct: mature; also called VE7_HPV33; not shown: N-terminal 6x Histidine tag and TEV cleavage site of the vector
T10 sequence: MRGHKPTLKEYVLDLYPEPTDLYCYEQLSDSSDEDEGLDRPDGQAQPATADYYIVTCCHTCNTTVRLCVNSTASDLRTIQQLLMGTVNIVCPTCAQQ

B1: ACAB161 (antibody, IgG2a, V domains shown)
VH: EVMLVESGGGLVKPGGSLKLSCAASGFTFSRYTMSWVRQTPEKRLEWVATISSGGTNTNYTDSVKGRFTISRDNAKNNLYLQMSSLRSEDTALYYCTRGVRRGDGYAMDYWGQGTSVTVSS
VL: DIVLTQAAPSVPVTPGESVSISCRSTKSLLHSNGNTYLYWFLQRPGQSPQALIYRTSNLASGVPDRFSGSGSGTAFTLRISRVEAEDVGVYYCMQHLEYPLTFGAGTKLELKR
notes: the printed entries run on into the first residues of the constant domains; also called HPV16E7 IgG2a antibody ACAB161
B2: ACAB164 (antibody, V domains shown)
VH: EVQLQQSGLALVQPGASVKISCRTSGYTFTEYTLHWVKQSHGKSLEWIGGINPNNGSPKYNQKFKGKATLTVDKSSSTAYMELRSLTSEDSAVYYCARLDINSFFDYWGQGTTLTVSS
VL: DVVMTQSPLSLPVSLGDQASISCRSSQSLVHSNGNTYLQWYLQKPGQSPKLLIYKLSNRFSGVPDRFSGSGSGTDFTLKISRVEAEDLGVYSCSQTTHVPPTFGGGTKLEIKR
notes: the printed entries run on into the first residues of the constant domains; also called HPV16E7 IgG2a antibody ACAB164
B3: ACAB452 (antibody, IgG1, V domains shown)
VH: DVQLQESGPGLVKPSQSLSLTCTVTGYSITSDYAWNWIRQFPGNKLEWVGYITYSGSTNYNPSLKSRISITRDTSKNQFFLQFNSVTSEDTATYFCARSWFAYWGQGTLVTVSS
VL: DIVMTQTPLSLPVSLGDQASISCRSSQSLVHSNGNTYLHWFLQKPGQSPKLLIYKVSNRFSGVPDRFSGSGSGTDFTLKISRVEAEDLGVYFCLQSAHVPLTFGAGTKLELTR
notes: also called HPV45E7 IgG1 antibody ACAB452

How the values were obtained:
[1] = target: T1, HPV38 E7 protein (beta-papillomavirus), …; assay: ELISA and dot-blot
[2] = target: T2, HPV5 E7 protein (beta-papillomavirus), …; assay: ELISA and dot-blot
[3] = target: T3, HPV6 E7 protein (low risk type), …; assay: ELISA and dot-blot
[4] = target: T4, HPV11 E7 protein (low risk type), …; assay: ELISA and dot-blot
[5] = target: T5, HPV39 E7 protein, recombinant …; assay: ELISA and dot-blot, semiquantitative crossreactivity
Description: (§1) Using ELISA and dot-blot techniques semiquantitative crossreactivities of the isolated mAbs was analysed. For this various mAbs were tested against the accepted high risk species.

[6] = target: T6, HPV45 E7 protein, recombinant …; assay: as above
Description: as §1

[7] = target: T7, HPV51 E7 protein, recombinant …; assay: as above
Description: as §1

[8] = target: T8, HPV56 E7 protein, recombinant …; assay: as above
Description: as §1

[9] = target: T9, HPV35 E7 protein, recombinant …; assay: ELISA and dot-blot, semiquantitative crossreactivity (+ weak interaction)
Description: as §1

[10] = target: T10, HPV33 E7 protein, recombinant …; assay: ELISA and dot-blot, semiquantitative crossreactivity (++ strong positive)
Description: as §1

Binder	binding result [1]	binding result [2]	binding result [3]	binding result [4]	binding result [5]	binding result [6]	binding result [7]	binding result [8]	binding result [9]	binding result [10]
B1	no binding	no binding	no binding	no binding	no binding	no binding	no binding	no binding	binds	binds
B2	no binding	no binding	no binding	no binding	no binding	no binding	no binding	no binding		binds
B3	no binding	no binding	no binding	no binding					binds	
